Data taken from US20200164114A1.

Key:
[1] = biological target: integrin αIIbβ3 on human platelets (human) (UniProt P08514); experiment: cell-based or functional assay
[2] = biological target: integrin αIIbβ3 on CHO cells (CHO-αIIbβ3) (UniProt P08514); experiment: cell adhesion inhibition: CHO-αIIbβ3 cells to immobilized fibrinogen
[3] = biological target: integrin αvβ3 on CHO cells (CHO-αvβ3) (UniProt P06756); experiment: cell adhesion inhibition: CHO-αvβ3 cells to immobilized fibrinogen

Chain of integrin αIIbβ3 on human platelets (human) (P08514 32-1039, chain 1 of 2): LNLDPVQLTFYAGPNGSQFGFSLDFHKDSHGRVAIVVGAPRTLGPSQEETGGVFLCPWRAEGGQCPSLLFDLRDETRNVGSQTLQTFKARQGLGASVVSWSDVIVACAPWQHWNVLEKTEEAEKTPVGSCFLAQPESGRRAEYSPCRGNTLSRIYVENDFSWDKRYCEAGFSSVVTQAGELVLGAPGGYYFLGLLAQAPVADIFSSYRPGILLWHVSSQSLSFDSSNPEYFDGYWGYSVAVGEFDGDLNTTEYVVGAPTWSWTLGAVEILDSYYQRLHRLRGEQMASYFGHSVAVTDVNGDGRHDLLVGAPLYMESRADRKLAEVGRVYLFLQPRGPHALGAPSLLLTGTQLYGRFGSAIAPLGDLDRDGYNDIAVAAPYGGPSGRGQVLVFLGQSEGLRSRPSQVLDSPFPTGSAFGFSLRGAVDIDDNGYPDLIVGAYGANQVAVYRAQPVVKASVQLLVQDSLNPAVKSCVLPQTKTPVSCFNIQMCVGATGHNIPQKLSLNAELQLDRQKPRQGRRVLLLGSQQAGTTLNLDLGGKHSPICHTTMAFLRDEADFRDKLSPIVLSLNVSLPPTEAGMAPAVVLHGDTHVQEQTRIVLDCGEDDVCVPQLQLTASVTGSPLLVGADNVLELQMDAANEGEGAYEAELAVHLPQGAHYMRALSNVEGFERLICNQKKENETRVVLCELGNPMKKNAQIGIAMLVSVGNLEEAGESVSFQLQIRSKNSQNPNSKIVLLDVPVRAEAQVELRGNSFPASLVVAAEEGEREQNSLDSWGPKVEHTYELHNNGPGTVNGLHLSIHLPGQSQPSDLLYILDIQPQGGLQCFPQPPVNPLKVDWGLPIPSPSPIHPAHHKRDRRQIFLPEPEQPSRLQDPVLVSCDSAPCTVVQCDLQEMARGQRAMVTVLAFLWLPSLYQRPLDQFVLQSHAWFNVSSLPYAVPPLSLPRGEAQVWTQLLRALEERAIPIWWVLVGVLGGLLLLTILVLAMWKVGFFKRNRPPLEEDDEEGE
Chain of integrin αIIbβ3 on human platelets (human) (P05106 27-788, chain 2 of 2, further chain): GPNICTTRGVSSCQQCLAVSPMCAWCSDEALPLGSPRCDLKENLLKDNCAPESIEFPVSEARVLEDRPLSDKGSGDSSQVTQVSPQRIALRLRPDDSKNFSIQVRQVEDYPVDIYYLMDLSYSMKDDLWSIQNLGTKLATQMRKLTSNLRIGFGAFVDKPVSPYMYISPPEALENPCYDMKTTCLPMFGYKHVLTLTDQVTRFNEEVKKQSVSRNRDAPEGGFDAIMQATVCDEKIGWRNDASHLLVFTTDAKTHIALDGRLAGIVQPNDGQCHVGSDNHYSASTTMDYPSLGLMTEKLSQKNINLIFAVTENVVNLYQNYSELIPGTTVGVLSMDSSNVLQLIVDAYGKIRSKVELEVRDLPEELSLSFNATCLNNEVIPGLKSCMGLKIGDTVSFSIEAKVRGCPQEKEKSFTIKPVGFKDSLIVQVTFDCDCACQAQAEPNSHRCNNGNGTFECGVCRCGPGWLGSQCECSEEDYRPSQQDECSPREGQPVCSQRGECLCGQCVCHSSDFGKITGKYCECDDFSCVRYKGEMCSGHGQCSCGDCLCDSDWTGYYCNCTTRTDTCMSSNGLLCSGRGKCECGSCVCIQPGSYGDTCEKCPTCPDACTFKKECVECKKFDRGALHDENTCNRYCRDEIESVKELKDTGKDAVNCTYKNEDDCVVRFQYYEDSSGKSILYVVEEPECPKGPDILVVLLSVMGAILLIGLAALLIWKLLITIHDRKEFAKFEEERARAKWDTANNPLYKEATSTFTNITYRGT

Substance: trimucrin mutant T/KF
- Platelet aggregation IC50 (nM), ADP [1]: 154 nM
- Platelet aggregation IC50 (nM), Collagen [1]: 68.9 nM
- IC50 [2]: 5550 nM

Substance: trimucrin mutant T/KRR
- Platelet aggregation IC50 (nM), ADP [1]: 213 nM
- Platelet aggregation IC50 (nM), Collagen [1]: 30.9 nM
- IC50 [2]: 7330 nM

Substance: trimucrin mutant T/KRKR
- Platelet aggregation IC50 (nM), ADP [1]: 138 nM
- IC50 [2]: 13900 nM

Substance: trimucrin mutant T/KR
- Platelet aggregation IC50 (nM), ADP [1]: 141 nM
- Platelet aggregation IC50 (nM), Collagen [1]: 49.9 nM
- IC50 [2]: 6310 nM

Substance: trimucrin mutant T/KWR
- Platelet aggregation IC50 (nM), ADP [1]: 106 nM
- Platelet aggregation IC50 (nM), Collagen [1]: 26.3 nM
- IC50 [2]: 290 nM

Substance: trimucrin mutant T/KRRFH
- Platelet aggregation IC50 (nM), ADP [1]: 192 nM
- Platelet aggregation IC50 (nM), Collagen [1]: 66.9 nM
- IC50 [2]: 5600 nM

Substance: trimucrin mutant T/KHR
- Platelet aggregation IC50 (nM), ADP [1]: 256 nM
- Platelet aggregation IC50 (nM), Collagen [1]: 80.1 nM
- IC50 [2]: 5980 nM

Substance: rhodostomin mutant R/K
- Platelet aggregation IC50 (nM), ADP [1]: 152 nM
- IC50 [2]: 89.8 nM

Substance: trimucrin T/KRRR mutant
- Platelet Aggregation IC50 [1]: 127 nM
- Platelet aggregation IC50 (nM), ADP [1]: 127 nM
- Platelet aggregation IC50 (nM), Collagen [1]: 30.6 nM
- IC50 [2]: 6580 nM

Substance: trimucrin mutant T/KH
- Platelet aggregation IC50 (nM), ADP [1]: 382 nM
- Platelet aggregation IC50 (nM), Collagen [1]: 99.3 nM
- IC50 [2]: 15700 nM

Substance: trimucrin mutant T/IEEGKRR
- Platelet aggregation IC50 (nM), ADP [1]: 511 nM
- Platelet aggregation IC50 (nM), Collagen [1]: 57.5 nM
- IC50 [2]: 33800 nM

Substance: trimucrin (TMV-7)
- Platelet aggregation IC50 (nM), ADP [1]: 184 nM
- Platelet aggregation IC50 (nM), Collagen [1]: 83.8 nM

Substance: trimucrin mutant T/KFRFH
- Platelet aggregation IC50 (nM), ADP [1]: 120 nM
- Platelet aggregation IC50 (nM), Collagen [1]: 63.1 nM
- IC50 [2]: 3190 nM

Substance: trimucrin mutant T/K
- Platelet aggregation IC50 (nM), ADP [1]: 563 nM
- Platelet aggregation IC50 (nM), Collagen [1]: 105 nM
- IC50 [2]: 27300 nM

Substance: rhodostomin
- Platelet Aggregation IC50 [1]: 83.2 nM
- Platelet aggregation IC50 (nM), ADP [1]: 81.5 nM
- Platelet aggregation IC50 (nM), Collagen [1]: 66.8 nM
- IC50 [3]: 13 nM
- IC50 [2]: 59.5 nM

Substance: trimucrin mutant T/KWN
- Platelet aggregation IC50 (nM), ADP [1]: 125 nM
- Platelet aggregation IC50 (nM), Collagen [1]: 67.7 nM
- IC50 [2]: 1780 nM

Substance: trimucrin mutant T/IEEGKS
- Platelet aggregation IC50 (nM), ADP [1]: 563 nM
- Platelet aggregation IC50 (nM), Collagen [1]: 632 nM
- IC50 [2]: > 195000 nM

Substance: trimucrin mutant T/KY
- Platelet aggregation IC50 (nM), ADP [1]: 246 nM
- Platelet aggregation IC50 (nM), Collagen [1]: 44.9 nM
- IC50 [2]: 3300 nM

Substance: trimucrin mutant T/IEEGK
- Platelet aggregation IC50 (nM), ADP [1]: 1050 nM
- Platelet aggregation IC50 (nM), Collagen [1]: 217 nM
- IC50 [2]: 97600 nM

Substance: trimucrin mutant T/MGKWN
- Platelet aggregation IC50 (nM), ADP [1]: 78 nM
- Platelet aggregation IC50 (nM), Collagen [1]: 48.5 nM
- IC50 [2]: 1720 nM

Substance: trimucrin mutant T/KWNR
- Platelet aggregation IC50 (nM), ADP [1]: 54.6 nM
- Platelet aggregation IC50 (nM), Collagen [1]: 52.4 nM
- IC50 [2]: > 692 nM

Substance: trimucrin mutant T/KYR
- Platelet aggregation IC50 (nM), ADP [1]: 117 nM
- Platelet aggregation IC50 (nM), Collagen [1]: 61 nM
- IC50 [2]: 1460 nM

Substance: trimucrin mutant T/KS
- Platelet aggregation IC50 (nM), ADP [1]: 1080 nM
- Platelet aggregation IC50 (nM), Collagen [1]: 562 nM
- IC50 [2]: 39900 nM
